This is an account of results in PMC4789767, “Application of linker technique to trap transiently interacting protein complexes for structural studies” (Journal of Biological Methods, 2016).

This experiment deals with T1, Calmodulin (CaM), wild type, full length (UniProt P0DP26 1-149).
T1 construct: Used without calcium (buffer with 2 mM EGTA); also called WT CaM; apo-CaM; source: purified, as described previously [19]
Nature of the experiment: ITC; VP-ITC; 150 µM CaM (WT or mutant) in the syringe, 10 µM full-length Nm/Ng (WT or mutant) in the cell; Buffer A (20 mM imidazole pH 8.0, 100 mM NaCl, 2 mM EGTA); 25°C; 30 injections of 10 µl. The conditions noted are these: both partners purified.

B1: Neuromodulin (Nm), wild type, full length (natural protein)
chain: MLCCMRRTKQVEKNDEDQKIEQDGVKPEDKAHKAATKIQASFRGHITRKKLKGEKKGDAPAAEAEAKEKDDAPVADGVEKKEGDGSATTDAAPATSPKAEEPSKAGDAPSEEKKGEGDAAPSEEKAGSAETESAAKATTDNSPSSKAEDGPAKEEPKQADVPAAVTDAAATTPAAEDAATKAAQPPTETAESSQAEEEKDAVDEAKPKESARQDEGKEDPEADQEHA
notes: also called WT Nm; source: purified, as described previously [19]
In the case of B1, the binding result was “binds”.
